According to patent US20260217843A1 (APOGEE THERAPEUTICS, published 2026):

T1: Recombinant Cynomolgus OX40L Protein, His Tag (SINO BIOLOGICAL, Cat. 11057-C07H) (cynomolgus, UniProt G7NVH7 51-183)
T1 construct: Bought protein
T1 sequence: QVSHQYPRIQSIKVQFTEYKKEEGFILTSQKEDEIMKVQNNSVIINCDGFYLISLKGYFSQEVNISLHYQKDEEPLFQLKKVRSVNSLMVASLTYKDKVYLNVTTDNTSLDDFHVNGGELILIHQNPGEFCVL

T2: hOX40L on hOX40L-expressing CHO cells (human, UniProt P23510 1-183)
T2 construct: also called cell surface OX40L
T2 sequence: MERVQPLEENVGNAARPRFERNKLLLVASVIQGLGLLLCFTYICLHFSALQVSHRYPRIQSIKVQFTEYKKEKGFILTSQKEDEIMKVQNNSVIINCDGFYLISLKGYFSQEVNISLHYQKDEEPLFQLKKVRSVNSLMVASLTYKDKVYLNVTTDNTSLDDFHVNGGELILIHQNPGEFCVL

T3: biotinylated hOX40L (human, UniProt P23510 51-183, limits assumed, biotinylated (sites not given))
T3 construct: construct not described
T3 sequence: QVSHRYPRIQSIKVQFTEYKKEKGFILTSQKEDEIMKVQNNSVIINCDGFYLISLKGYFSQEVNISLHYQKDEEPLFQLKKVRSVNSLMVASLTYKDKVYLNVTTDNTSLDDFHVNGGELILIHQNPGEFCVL

T4: hOX40L added as soluble protein in cell assays (human, UniProt P23510 51-183, limits assumed)
T4 sequence: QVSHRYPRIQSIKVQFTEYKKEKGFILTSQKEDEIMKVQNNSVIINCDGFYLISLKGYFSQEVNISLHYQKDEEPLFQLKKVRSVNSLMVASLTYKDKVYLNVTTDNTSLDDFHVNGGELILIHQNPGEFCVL

T5: Recombinant Human OX40L Protein, His Tag (Acro Cat. IL3-H52H4) (human, UniProt P23510 51-183)
T5 construct: Bought His-tagged protein; also called hOX40L
T5 sequence: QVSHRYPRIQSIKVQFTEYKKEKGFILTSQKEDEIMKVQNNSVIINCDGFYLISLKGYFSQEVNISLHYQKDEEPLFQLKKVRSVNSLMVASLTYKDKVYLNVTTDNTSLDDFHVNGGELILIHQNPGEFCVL


Experiments:
[1] = target: T1, Recombinant Cynomolgus OX40L Protein, …; assay: SPR (Biacore 8K), antibody captured, cynomolgus OX40L injected, 1:1 fit
Protocol: (§1) Samples were injected in a multi-cycle manner over freshly captured mAb, by regenerating the capture surfaces with injection of glycine pH 1.5 for 30 sec at a flow rate of 30 μL/min. The data was processed and analyzed with Biacore Insight Evaluation Software Version 2.0.15.12933 (GE Healthcare) as follows. […] The responses from the two buffer blank injections were then subtracted from the reference subtracted data (2-1) to yield double-referenced data, which were fit to an 1:1 binding model to determine the apparent association (ka) and dissociation rate constants (kd). Their ratio provided the apparent equilibrium dissociation constant or affinity constant (KD=kd/ka).

[2] = target: T2, hOX40L on hOX40L-expressing CHO cells; assay: flow cytometry on hOX40L-expressing CHO cells, gMFI, nonlinear regression
Protocol: Nonlinear regression was performed on geometric mean fluorescence intensity (gMFI) values to determine EC50 values (FIG. 1, TABLE 8).

biotinylated hOX40L = target: T3, biotinylated hOX40L; assay: blocking ELISA: biotinylated hOX40L preincubated with titrated antibody, added to coated hOX40-Fc, Extravidin-HRP
[3] = target: T4, hOX40L added as soluble protein in cell …; assay: cell-based or functional assay
[4] = target: T5, Recombinant Human OX40L Protein, His …; assay: SPR (Biacore 8K), antibody captured, human OX40L injected, 1:1 fit
Protocol: as §1

human FcRn = human FcRn (human, UniProt P55899 24-297; P61769 21-119); assay: SPR (Biacore 8K+), antibody captured by anti-human kappa, human FcRn injected, pH 5.8; pH 5.8
Chain of human FcRn (P55899 24-297 limits assumed, form in doubt, chain 1 of 2): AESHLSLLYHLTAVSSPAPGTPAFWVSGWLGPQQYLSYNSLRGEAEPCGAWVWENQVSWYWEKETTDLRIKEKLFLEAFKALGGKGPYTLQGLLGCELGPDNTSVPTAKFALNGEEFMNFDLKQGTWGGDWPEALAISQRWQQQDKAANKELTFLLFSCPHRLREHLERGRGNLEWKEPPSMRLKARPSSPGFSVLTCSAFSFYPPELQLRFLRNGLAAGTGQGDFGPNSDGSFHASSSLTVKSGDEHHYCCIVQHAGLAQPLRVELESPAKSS
Chain of human FcRn (P61769 21-119 limits assumed, form in doubt, chain 2 of 2): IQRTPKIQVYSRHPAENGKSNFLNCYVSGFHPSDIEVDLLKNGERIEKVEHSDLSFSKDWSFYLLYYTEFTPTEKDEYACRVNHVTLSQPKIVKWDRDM
Protocol: (§2) Briefly, a CM5 Series S sensor chip functionalized with anti-human kappa antibody was used to capture antibodies at 5 μg/mL. […] The chip was regenerated with 10 mM glycine pH 1.5 and 10 mM NaOH between runs.

C1q = target: T6, C1q; assay: SPR (Biacore 8K+), antibody captured by anti-human IgG Fc, C1q injected at 25 nM, mean response
T6 construct: also called Clq
T6 sequence (P02745 23-245, chain 1 of 3): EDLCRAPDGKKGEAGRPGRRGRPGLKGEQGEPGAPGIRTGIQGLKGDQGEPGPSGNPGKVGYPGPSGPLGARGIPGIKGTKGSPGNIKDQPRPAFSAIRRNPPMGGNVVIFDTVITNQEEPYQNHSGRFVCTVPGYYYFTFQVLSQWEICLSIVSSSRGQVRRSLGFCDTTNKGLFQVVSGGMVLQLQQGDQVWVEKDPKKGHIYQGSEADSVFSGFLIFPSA
T6 sequence (P02746 28-253, chain 2 of 3, further chain): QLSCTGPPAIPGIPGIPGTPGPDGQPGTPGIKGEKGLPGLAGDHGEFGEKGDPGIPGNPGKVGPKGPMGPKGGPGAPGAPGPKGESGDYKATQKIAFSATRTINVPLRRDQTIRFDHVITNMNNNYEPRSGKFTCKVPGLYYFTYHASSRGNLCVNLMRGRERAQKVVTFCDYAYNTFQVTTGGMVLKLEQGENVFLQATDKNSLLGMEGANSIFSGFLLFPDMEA
T6 sequence (P02747 29-245, chain 3 of 3, further chain): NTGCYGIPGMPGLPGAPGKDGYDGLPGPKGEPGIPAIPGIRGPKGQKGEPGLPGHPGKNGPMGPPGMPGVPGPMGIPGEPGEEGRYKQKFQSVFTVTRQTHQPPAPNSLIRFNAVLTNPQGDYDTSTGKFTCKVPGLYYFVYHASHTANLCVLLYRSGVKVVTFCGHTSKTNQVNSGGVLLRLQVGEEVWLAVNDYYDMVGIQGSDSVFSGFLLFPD
Protocol: Briefly, a CM5 Series S sensor chip functionalized with anti-human IgG Fc antibody was used to capture antibodies at 5 μg/mL. […] The chip was regenerated with 10 mM glycine pH 1.5 and 10 mM NaOH between runs.

cynomolgus FcRn = cynomolgus FcRn (cynomolgus, UniProt Q8SPV9 24-297; Q8SPW0 21-119); assay: SPR (Biacore 8K+), antibody captured by anti-human kappa, cynomolgus FcRn injected, pH 5.8; pH 5.8
Chain of cynomolgus FcRn (Q8SPV9 24-297 limits assumed, chain 1 of 2): as the sequence (P55899 24-297 limits assumed, form in doubt, chain 1 of 2) above, with N39D, E44Q, G99S, S189G, S190N, L217M, S269T counted along it
Chain of cynomolgus FcRn (Q8SPW0 21-119 limits assumed, chain 2 of 2): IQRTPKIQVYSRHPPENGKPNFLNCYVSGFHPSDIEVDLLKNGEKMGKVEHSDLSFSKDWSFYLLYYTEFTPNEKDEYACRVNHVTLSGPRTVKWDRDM
Protocol: as §2

Binder	Kd [1] [nM]	koff [1] [s⁻¹]	kon [1] [M⁻¹ s⁻¹]	EC50 [2] [nM]	IC50 (biotinylated hOX40L) [nM]	IC50, luminescence (RLU), hOX40 reporter cells with 50 ng/mL hOX40L [3] [nM]	Kd [4] [nM]	koff [4] [s⁻¹]	kon [4] [M⁻¹ s⁻¹]	Kd (human FcRn) [nM]	koff (human FcRn) [s⁻¹]	kon (human FcRn) [M⁻¹ s⁻¹]	RU at 25 nM C1q (C1q) [RU]	Kd (cynomolgus FcRn) [nM]	koff (cynomolgus FcRn) [s⁻¹]	kon (cynomolgus FcRn) [M⁻¹ s⁻¹]
positive control based on the sequences of the anti-hOX40L antibody amlitelimab (antibody, IgG4, V domains shown, also called Pos; Ctrl) VH: EVQLVESGGGLVQPGGSLRLSCAASGFTFSNYAMNWVRQAPGKGLEWVSTISGSGGATRYADSVKGRFTISRDNSRNTVYLQMNSLRVEDTAVFYCTKDRLIMATVRGPYYYGMDVWGQGTTVTVSS VL: DIQMTQSPSSLSASVGDRVTITCRASQSISSYLNWYQQKPGKAPNLLIYAASSLQSGVPSRFSGSGSETDFTLTISSLQPEDFATYYCQQSHSVSFTFGPGTKVDIK	0.0455	0.000119	2.62e+06	3.49	0.62	–	–	–	–	–	–	–	–	–	–	–
anti-hOX40L antibody clone 118 (antibody, human IgG1, kappa, L234A L235A, V domains shown) VH: EVQVVESGGGLIQPGGSLRISCAASGFPVSSNYMSWVRQAPGKGLDWVSIIYSRDSTHYADSVKGRFTMSRDNSKNTVYLQMNSLRAEDTAVYYCAGTLTYYYGAGSDYWGQGTLVTVSS VL: DIQMTQSPSSLSASVGDRVTITCRASQGIRNDLGWYQQKPGKAPKRLIYAASSLQSGVPSRFSGSGSGTEFTLTISSLQPEDFATYYCLQHNSYPWSFGQGTKVEIKR	–	–	–	–	–	0.912	0.182	2.82e-05	155000	–	–	–	–	–	–	–
anti-hOX40L antibody clone 127 (antibody, human IgG1, kappa, L234A L235A, V domains shown) VH: EVQLVESGGGFVKPGGSLRLSCAASGFTFSNAWMSWVRQAPGKGLEWVGRIKSNSYGGTTDYAAPAIGRFTISRDGSKSTLYLQMNSLKTEDTAVYYCTTDHPKFGFDFWGQGTLVTVSS VL: not shown	–	–	–	–	–	1.72	1.11	0.00021	189000	–	–	–	–	–	–	–
anti-hOX40L antibody clone 122 (antibody, human IgG1, kappa, L234A L235A, V domains shown) VH: EVQLVESGGGLVQPGGSLRLSCAASGFTFSNYWMHWVRQAPGKGLVWVSRINSDGISTRYADSVKGRFTISRDNAKNTLYLQMKSLRAEDTAVYYCVRDFQLELPDYWGQGTLVTVSS VL: DIQMTQSPSSLSASVGDRVTITCRASQGIRDDLAWYQQKAGKAPKRLIFAASSLQSGVPSRFSGSGSGTEFTLTISGLQPEDFANYYCLQHKSNPFTFGQGTKLEIKR	–	–	–	–	1.57	–	< 0.00662	< 1e-06	151000	–	–	–	–	–	–	–
anti-hOX40L antibody clone 128 (antibody, human IgG1, kappa, L234A L235A, V domains shown) VH: EVQLVESGGGLVTPGGSLRISCAASGFTFNNAWMTWVRQAPGKGLEWVGRIKSISYGGTTDSAAPVKGRFTISRDDSENTLYLQMSSLKTEDTAVYYCSTGSVWKYGGSLDFWGQGTLVTVSS VL: DIQMTQSPSSLSASVGDRVTFTCRASQGISRFLNWYQQKPGKAPKLLIYAASTLQNGVPSRFSGSGSGTDFTLTISSLQPEDFATYFCQQTYSTPLTFGGGTKVEIYR	–	–	–	–	7.52	–	< 0.00893	< 1e-06	112000	–	–	–	–	–	–	–
anti-hOX40L antibody clone 328 (antibody, human IgG1, kappa, L234A L235A) heavy: QVQLQESGPGLVKPSQTLSLTCTVSGGSISSGGYYWSWIRQYPGKGLEWIGHIYYSGSTKYNPSLKSRLTISVDTSKNQFSLKLSSVTAADTAVYYCARDNWGSGWYYMDVWGKGTTVTVSSASTKGPSVFPLAPSSKSTSGGTAALGCLVKDYFPEPVTVSWNSGALTSGVHTFPAVLQSSGLYSLSSVVTVPSSSLGTQTYICNVNHKPSNTKVDKKVEPKSCDKTHTCPPCPAPEAAGGPSVFLFPPKPKDTLYITREPEVTCVVVDVSHEDPEVKFNWYVDGVEVHNAKTKPREEQYNSTYRVVSVLTVLHQDWLNGKEYKCKVSNKALPAPIEKTISKAKGQPREPQVYTLPPSRDELTKNQVSLTCLVKGFYPSDIAVEWESNGQPENNYKTTPPVLDSDGSFFLYSKLTVDKSRWQQGNVFSCSVMHEALHNHYTQKSLSLSPG light: EIVLTQSPATLSLSPGERATLSCRASQSVSNYFAWYRQKPGQAPRLLIYDASNRATGIPARFSGSGSGTDFTLTISSLEPEDFAVYYCQHRSNWPLTFGGGTKVEIKRTVAAPSVFIFPPSDEQLKSGTASVVCLLNNFYPREAKVQWKVDNALQSGNSQESVTEQDSKDSTYSLSSTLTLSKADYEKHKVYACEVTHQGLSSPVTKSFNRGEC	0.0316	0.000152	4.8e+06	–	5.99	1.9	0.136	0.000271	2e+06	137	0.046	336000	0.2	116	0.0462	399000
anti-hOX40L antibody clone 130 (antibody, human IgG1, kappa, L234A L235A, V domains shown) VH: EVQLVESGGGLVKPGGSLRLSCAASGFTFSYAWMSWVRQAPGRGLEWVGRIKSETDGGTTDYAAPVKGRFTISRDHSENTLFLQMNSLKTEDTAVYYCTTGSSWNVYFFDFWGQGTLVTVSS VL: DIQMTQSPSSLSASVGDSVTITCRASQSISNYLNWYHQKPGKAPKLLIYAAYRLQTGVPSRFSGSGSGTDFTLTISSLQPEDFATYYCQQSYSSPLTFGGGTKVEIKR	–	–	–	–	13	–	0.0873	1.14e-05	131000	–	–	–	–	–	–	–
